According to publication PMC9305271:

Legend:
[1] = target: intermediate horseshoe bat ACE2 (bACE2-Ra), peptidase domain, residues 19-615 (Rhinolophus affinis (intermediate horseshoe bat)); test: SPR
[2] = target: bACE2-Ra-eGFP, full length, on BHK-21 cells (Rhinolophus affinis (intermediate horseshoe bat)); test: flow cytometry on cells
[3] = target: intermediate horseshoe bat ACE2 (bACE2-Ra), peptide domain, residues 19-615 (Rhinolophus affinis (intermediate horseshoe bat)); test: SPR

Substance: SARS-CoV-2 receptor-binding domain (prototype), residues 319-541 (from UniProt P0DTC2 319-541) (domain or fragment)
- Kd [1]: 547 nM

Substance: SARS-CoV-2 receptor-binding domain (RBD) (from UniProt P0DTC2 319-541) (domain or fragment)
- double-positive rate [2]: 31.6%
- Kd [3]: 448 nM
